Test results published in patent US6258556, “cDNA and genomic clones encoding human µ opiate receptor and the purified gene product” (The United States of America as represented by the …, dated 2001).
Non-standard residues stand in square brackets, D forms with d. No end group written: not given here. *: point of attachment. NMeF = CN[C@@H](Cc1ccccc1)C(=O)O; NHCH2CH2OH = OCCN*

What was measured:
human µ opiate receptor [1] = target: human µ opiate receptor (human); assay: saturation radioligand binding, whole COS cells transfected with pcDNA1hµOR1
Experimental: (§1) COS cells were transfected by electroporation with 20 µg/10^7 cells of plasmid pcDNA1hµOR1, grown for two to three days and tested for opiate receptor expression by radioligand binding as described, except that whole cell suspensions were used. Adenyl cyclase activities were assessed by radioimmunoassay as described. Cells transfected with the pcDNA1 vector alone served as negative controls.

human µ opiate receptor [2] = target: human µ opiate receptor (human); assay: [3H]DAMGO binding to COS cells expressing hµOR1, with against without 50 µM Gpp(NH)p
Experimental: as §1

human µ opiate receptor [3] = target: human µ opiate receptor (human); assay: [3H]DAMGO binding to COS cells expressing hµOR1, with sodium chloride as low as 5 mM; CLM-00019 ties this to DAMGO
Experimental: as §1

human µ opiate receptor [4] = target: human µ opiate receptor (human); assay: displacement of [3H]DAMGO from COS cells expressing hµOR1; 'low affinities of less than 100 nM' is read as weaker than 100 nM
Experimental: as §1

human µ opiate receptor [5] = target: human µ opiate receptor (human); assay: displacement of [3H]DAMGO from COS cells expressing hµOR1; paragraph 40 says 'low affinities', CLM-00014 calls the value a KD
Experimental: as §1

B1: (D-ala^2, N-methyl-phe^4, glyol^5) enkephalin (peptide)
peptide: Y[dA]G[NMeF][NHCH2CH2OH]
modifications: not fully specified (C-terminus); printed as (D-ala^2, N-methyl-phe^4, glyol^5) enkephalin; also: [3H] label in binding assays
- Kd (human µ opiate receptor [1]): 1.2 nM
- fold reduction of affinity with 50 µM Gpp(NH)p (human µ opiate receptor [2]): > 3 fold
- fold reduction of binding affinity with 5 mM sodium chloride (human µ opiate receptor [3]): 2 fold

B2: DPDPE (D-pen^2, D-pen^5 enkephalin) (peptide)
peptide: YXGFX
modifications: D-penicillamine at 2 and at 5 (written X)
- Kd (human µ opiate receptor [4]): > 100 nM

B3: dynorphin A 1-17 (peptide)
peptide: YGGFLRRIRPKLKWDNQ
- Kd (human µ opiate receptor [5]): 284 nM
